Data as given in patent US20080153737A1.

How the values were obtained:
Assay in all cases: cell-based or functional assay
[1] = biological target: HIV env gp160 stably expressed on mouse melanoma B16 cells (gp160-B16) (HIV (strain not stated))
[2] = biological target: HIV envelope protein (env, gp160/gp120) of HIV strain IIIB on infected cells and virus (HIV strain IIIB) (UniProt P04578)
[3] = biological target: ErbB2 receptor on SKBR3 breast cancer cells (UniProt P04626)

delivery of FITC-siRNA into cells (flow cytometry) [3]	Substance	uptake of FITC-siRNA by implanted tumor cells after intravenous injection (fluorescence microscopy) [1]	reduction of HIV infection in primary CD4 T cells (p24 Ag ELISA of culture supernatants) [2] [%]	reduction of HIV replication in infected primary CD4 cells (F105-P + irrelevant GFP siRNA condition) [2] [%]	uptake of FITC-CD4 siRNA by an HIV IIIB-infected Jurkat culture, 24 h (flow cytometry) [2]	uptake of FITC-labeled siRNA by HIV-infected Jurkat cells (flow cytometry) (% of infected cells) [2]	reduction of HIV replication in infected primary CD4 cells (F105 + gag siRNA condition) [2] [%]
	F105-protamine (Fab fragment of human anti-HIV gp120 antibody F105, heavy chain fused at its C-terminus to full-length protamine) (from UniProt P04553 1-51)	30 % of cells	30	25 to 28	21 % of cells	40	
	F105 (antibody Fab fragment against HIV envelope, lacking protamine)		30				25 to 28
32 % of cells	single chain ErbB2 antibody protamine fusion protein ML39 ScFv-P (from UniProt P04553 8-29)						
